Measurements taken from publication PMC8156982, “DNA Aptamers against Vaccinia-Related Kinase (VRK) 1 Block Proliferation in MCF7 Breast Cancer Cells”.

Key:
[1] = molecular target: T1, VRK1 (vaccinia-related kinase 1), recombinant (UniProt Q99986 1-396); assay: ELONA; 1 mM Mg2+; 10 mM sodium phosphate, 0.15 M NaCl, pH 7.5, 1 mM MgCl2, 0.2% BSA; 37 C, 1 h; aptamers denatured at 95 C 10 min then ice 10 min; VRK1 coated on plate (20 or 200 ng/well); settings: protein: recombinant, tags: 6xHis, label: digoxigenin (5' when made with primer F5)
T1 sequence: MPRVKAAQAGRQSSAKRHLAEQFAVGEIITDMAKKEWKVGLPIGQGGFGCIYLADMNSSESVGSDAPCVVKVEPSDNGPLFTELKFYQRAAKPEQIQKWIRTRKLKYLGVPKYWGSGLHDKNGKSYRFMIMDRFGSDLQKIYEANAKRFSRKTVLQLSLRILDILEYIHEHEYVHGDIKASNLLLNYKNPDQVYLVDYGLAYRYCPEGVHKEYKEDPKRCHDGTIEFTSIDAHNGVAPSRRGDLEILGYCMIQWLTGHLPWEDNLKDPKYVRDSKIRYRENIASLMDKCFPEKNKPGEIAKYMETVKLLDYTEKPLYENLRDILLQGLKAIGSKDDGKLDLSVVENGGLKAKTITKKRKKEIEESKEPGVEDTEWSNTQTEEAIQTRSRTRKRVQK

[2] = molecular target: T1, VRK1 (vaccinia-related kinase 1), …; assay: ELONA; 80 nM; at least twice control; 10 mM sodium phosphate, 0.15 M NaCl, pH 7.5, 1 mM MgCl2, 0.2% BSA; 37 C, 1 h; aptamers denatured at 95 C 10 min then ice 10 min; VRK1 coated on plate (20 or 200 ng/well); settings: protein: recombinant; tags: 6xHis; label: 5' digoxigenin on both chains; PCR duplex denatured at 95 C and cooled on ice
[3] = molecular target: T1, VRK1 (vaccinia-related kinase 1), …; assay: ELONA; 40 nM PCR-labeled chain; 10 mM sodium phosphate, 0.15 M NaCl, pH 7.5, 1 mM MgCl2, 0.2% BSA; 37 C, 1 h; aptamers denatured at 95 C 10 min then ice 10 min; VRK1 coated on plate (20 or 200 ng/well); settings: protein: recombinant; tags: 6xHis; label: digoxigenin (5' when made with primer R5); no G-quadruplex (predicted)
[4] = possible two G-quadruplexes (predicted)

B1: apVRKF8 (V#F8) (ssDNA)
DNA: ACGCTCGGATGCCACTACAGGGAGGGGGGGGGAAAGTAAGCGGGGGGTCGGCGGCCTCATGGACGTGCTGGTGA
Kd [1, 4]: 45.8 ± 5.01 nM

B2: apVRK8 (F+R chains) (mixed)
DNA 1: ACGCTCGGATGCCACTACAGGGAGGGGGGGGGAAAGTAAGCGGGGGGTCGGCGGCCTCATGGACGTGCTGGTGA
DNA 2: TCACCAGCACGTCCATGAGGCCGCCGACCCCCCGCTTACTTTCCCCCCCCCTCCCTGTAGTGGCATCCGAGCGT
binding signal [2]: > 2 fold over control

B3: apVRKF28 (V#F28) (ssDNA)
DNA: ACGCTCGGATGCCACTACAGGGACGGCGGATGGGGGCGGTGGGTGGGTTTCTTGCCTCATGGACGTGCTGGTGA
Kd ([1]; possible one G-quadruplex (predicted)): 60.1 ± 7.05 nM

B4: apVRK28 (F+R chains) (mixed)
DNA 1: ACGCTCGGATGCCACTACAGGGACGGCGGATGGGGGCGGTGGGTGGGTTTCTTGCCTCATGGACGTGCTGGTGA
DNA 2: TCACCAGCACGTCCATGAGGCAAGAAACCCACCCACCGCCCCCATCCGCCGTCCCTGTAGTGGCATCCGAGCGT
binding signal [2]: > 2 fold over control

B5: apVRK33 (F+R chains) (mixed)
DNA 1: ACGCTCGGATGCCACTACAGGTTGCGAGGTGGGGGGTGGGTAGGGTGGGAAGTGCCCTCATGGACGTGCTGGTGA
DNA 2: TCACCAGCACGTCCATGAGGGCACTTCCCACCCTACCCACCCCCCACCTCGCAACCTGTAGTGGCATCCGAGCGT
binding signal [2]: > 2 fold over control

B6: apVRKF33 (V#F33) (ssDNA)
DNA: ACGCTCGGATGCCACTACAGGTTGCGAGGTGGGGGGTGGGTAGGGTGGGAAGTGCCCTCATGGACGTGCTGGTGA
Kd [1, 4]: 129 ± 55.6 nM

B7: apVRKR28 (V#R28) (ssDNA)
DNA: TCACCAGCACGTCCATGAGGCAAGAAACCCACCCACCGCCCCCATCCGCCGTCCCTGTAGTGGCATCCGAGCGT
binding result [3]: binds
